Here are results for 1 protein from publication PMC5099578, “A structural and functional study on the 2-C-methyl-D-erythritol-4-phosphate cytidyltransferase (IspD) from Bacillus subtilis” (Scientific Reports, 2016).

This data set concerns the molecule itself. The data set is described as follows: crystal structure; apo form I, space group P2_(1)2_(1)2_(1), crystallization condition I, hanging drop at 18 °C; two molecules in the asymmetric unit; 1.80 Å.

B1: 2-C-methyl-D-erythritol-4-phosphate cytidyltransferase (IspD) from Bacillus subtilis (enzyme, Bacillus subtilis 168)
chain: MSYDVVIPAAGQGKRMKAGRNKLFIELKGDPVIIHTLRVFDSHRQCDKIILVINEQEREHFQQLLSDYPFQTSIELVAGGDERQHSVYKGLKAVKQEKIVLVHDGARPFIKHEQIDELIAEAEQTGAAILAVPVKDTIKRVQDLQVSETIERSSLWAVQTPQAFRLSLLMKAHAEAERKGFLGTDDASLVEQMEGGSVRVVEGSYTNIKLTTPDDLTSAEAIMESESGNKHV
notes: IspD of Bacillus subtilis 168 (DSM 23778); the IspD gene amplified from genomic DNA as a 699 bp product; 232 residues built in apo form I (residues numbered up to 232); 699 bp fits 232 codons and a stop codon, so probably the whole gene; Cloned BamHI/XhoI in pGEX-6P-1; GST removed by PreScission protease, so a few vector residues may be left at the N-terminus (surmised); also called BsIspD; …
Broadly, the stoichiometry N is a count of units in the complex or per binding partner. On to B1, for which the “stoichiometry N” value was determined as 2.
